# Results as given in patent US20190127481A1 (UNIVERSIT T Z RICH, published 2019).
# Experiments:
# [1] = target: T1, HER2 (ErbB2/Neu) on the surface of HER2-overexpressing cancer cells (human, UniProt P04626 23-1255); assay: dissociation from BT474 cells by flow cytometry in the presence of a competing DARPin
# T1 construct: whole, on cells; also called HER2 on BT474, SkBr3, SkOv3 cells
# [2] = target: T2, HER2 (form in the assay not stated) (human, UniProt P04626 23-652, limits assumed); assay: method and HER2 form not stated
# [3] = target: T1, HER2 (ErbB2/Neu) on the surface of …; assay: flow cytometry on intact BT474 cells, Alexa488-labelled agent
# Procedure: Cells were detached by collagenase and EDTA for 5 min at 37° C. The solution was quenched by addition of medium and centrifuged at 300 g for 3 min. Cells were washed twice in warm PBS. […] Internalization was blocked by incubation in PBS containing 0.2% NaN₃ and 1% BSA for 30 min at 37° C.
# For each time point, a 1 ml aliquot of cells is withdrawn and subjected to FACS. Since the applied concentrations of the labeled ligand conjugates are very low, and since the time resolution of the measurement is to be maintained to ensure the accuracy of the on-rate determination, the samples are processed without further washing. For each time point, at least 10⁴ intact cells (gated as a uniform population on a FSC/SSC scatter plot) are counted, and the MFI (mean fluorescence intensity) is recorded.
# Corresponding to 100 μl cell suspension, samples were washed twice in 1 ml PBS (0.2% NaN₃, 1% BSA) and centrifuged at 600 g for 30 sec at room temperature. Cells were resuspended in 1 ml PBS (0.2% NaN₃, 1% BSA) containing 100 nM of equivalent unlabeled binding agent. The dissociation reaction was incubated for the indicated times (15, 30, 60, 120, 180 and 240 min) at room temperature while continuously stirring in the dark. Dissociation was stopped by placing the cell pellets on ice. Each sample was washed once with 1 ml cold PBS.
# [4] = target: T2, HER2 (form in the assay not stated); assay: method not stated
Binder,fold lower off-rate than monovalent G3 [1],Kd [2],koff [2],kon [2],Kd [3],koff [3],kon [3],Kd [4]
"9_29-(G4S)4-G3 (designed binder, fluorescently labelled in FIG. 18A (dye and site not carried by the letters), 20 amino acid (G4S)4 linker; also called 9_20_G) MRGSHHHHHHGSDLGKKLLEAARAGQDDEVRILMANGADVNAHDFYGITPLHLAANFGHLEIVEVLLKHGADVNAFDYDNTPLHLAADAGHLEIVEVLLKYGADVNASDRDGHTPLHLAAREGHLEIVEVLLKNGADVNAQDKFGKTAFDISIDNGNEDLAEILQKLGGGGSGGGGSGGGGSGGGGSRSDLGKKLLEAARAGQDDEVRILMANGADVNAKDEYGLTPLYLATAHGHLEIVEVLLKNGADVNAVDAIGFTPLHLAAFIGHLEIAEVLLKHGADVNAQDKFGKTAFDISIGNGNEDLAEILQKLN",10 fold,,,,,,,
"DARPin 929 (designed binder, Alexa Fluor-488 label in the flow-cytometry kinetics (attachment site not given), Member of the 9XX collection) MRGSHHHHHHGSDLGKKLLEAARAGQDDEVRILMANGADVNAHDFYGITPLHLAANFGHLEIVEVLLKHGADVNAFDYDNTPLHLAADAGHLEIVEVLLKYGADVNASDRDGHTPLHLAAREGHLEIVEVLLKNGADVNAQDKFGKTAFDISIDNGNEDLAEILQKLN",,3.8 nM,0.0008 s⁻¹,200000 M⁻¹ s⁻¹,33.5 nM,0.00221 s⁻¹,69000 M⁻¹ s⁻¹,1 nM
"9_26-(G4S)4-G3 (designed binder, fluorescently labelled in the dissociation assay; dye and site not stated, 20 amino acid (G4S)4 linker; also called 6_20_G) MRGSHHHHHHGSDLGKKLLEAARAGQDDEVRILMANGADVNAKDFYGITPLHLAAAYGHLEIVEVLLKHGADVNAHDWNGWTPLHLAAKYGHLEIVEVLLKHGADVNAIDNAGKTPLHLAAAHGHLEIVEVLLKYGADVNAQDKFGKTAFDISIDNGNEDLAEILQKLGGGGSGGGGSGGGGSGGGGSRSDLGKKLLEAARAGQDDEVRILMANGADVNAKDEYGLTPLYLATAHGHLEIVEVLLKNGADVNAVDAIGFTPLHLAAFIGHLEIAEVLLKHGADVNAQDKFGKTAFDISIGNGNEDLAEILQKLN",10 fold,,,,,,,
"G3-(G4S)4-9_26 (designed binder, fluorescently labelled in FIG. 18A (dye and site not carried by the letters), Opposite orientation of 6_20_G; also called G_20_6) MRGSHHHHHHGSDLGKKLLEAARAGQDDEVRILMANGADVNAKDEYGLTPLYLATAHGHLEIVEVLLKNGADVNAVDAIGFTPLHLAAFIGHLEIAEVLLKHGADVNAQDKFGKTAFDISIGNGNEDLAEILQKLGGGGSGGGGSGGGGSGGGGSRSDLGKKLLEAARAGQDDEVRILMANGADVNAKDFYGITPLHLAAAYGHLEIVEVLLKHGADVNAHDWNGWTPLHLAAKYGHLEIVEVLLKHGADVNAIDNAGKTPLHLAAAHGHLEIVEVLLKYGADVNAQDKFGKTAFDISIDNGNEDLAEILQKLN",10 fold,,,,,,,
DARPin G3 (designed binder) GSDLGKKLLEAARAGQDDEVRILMANGADVNAKDEYGLTPLYLATAHGHLEIVEVLLKNGADVNAVDAIGFTPLHLAAFIGHLEIAEVLLKHGADVNAQDKFGKTAFDISIGNGNEDLAEILQKLN,,,,,,,,0.09 nM
"DARPin 926 (designed binder, Member of the 9XX collection) MRGSHHHHHHGSDLGKKLLEAARAGQDDEVRILMANGADVNAKDFYGITPLHLAAAYGHLEIVEVLLKHGADVNAHDWNGWTPLHLAAKYGHLEIVEVLLKHGADVNAIDNAGKTPLHLAAAHGHLEIVEVLLKYGADVNAQDKFGKTAFDISIDNGNEDLAEILQKLN",,1.4 nM,0.0001 s⁻¹,70000 M⁻¹ s⁻¹,,,,1 nM
DARPin H14 (designed binder) GSDLGKKLLEAARAGQDDEVRILMANGADVNATDIHGHTPLHLAAAMGHLEIVEVLLKNGADVNANDWRGFTPLHLAALNGHLEIVEVLLKNGADVNATDTAGNTPLHLAAWFGHLEIVEVLLKNGADVNAQDKFGKTAFDISIDNGNEDLAEILQKLN,,0.2 nM,0.0001 s⁻¹,410000 M⁻¹ s⁻¹,0.97 nM,0.000179 s⁻¹,196000 M⁻¹ s⁻¹,
